Source: publication PMC12256112

Columns and labels:
[1] = biological target: isolated Rpn11/Rpn8 heterodimer with Rpn11 A89F (S. cerevisiae) (UniProt P43588)
[2] = biological target: isolated Rpn11/Rpn8 heterodimer with Rpn11 A89I (S. cerevisiae) (UniProt P43588)
[3] = biological target: Rpn11 L132R, deubiquitinase subunit of the lid in the reconstituted receptor-deficient 26S proteasome (S. cerevisiae) (UniProt P43588)
[4] = biological target: Rpn11, wild type, deubiquitinase subunit of the lid in the reconstituted 26S proteasome (S. cerevisiae) (UniProt P43588)
[5] = biological target: Rpn11, wild type, deubiquitinase subunit of the lid in the reconstituted 26S proteasome (S. cerevisiae) (UniProt P43588); remark: listed apart in the source
[6] = biological target: Rpn11 A89F, deubiquitinase subunit of the lid in the reconstituted receptor-deficient 26S proteasome (S. cerevisiae) (UniProt P43588)
[7] = biological target: Rpn11, wild type, deubiquitinase subunit of the lid in the reconstituted 26S proteasome (S. cerevisiae) (UniProt P43588); remark: listed apart in the source
[8] = biological target: Rpt5, ATPase subunit of the base, in the reconstituted 26S proteasome (S. cerevisiae) (UniProt P33297)

Ubiquitin-TAMRA
deubiquitinase activity of the isolated Rpn11/Rpn8 heterodimer (0.5 μM) on 100 μM Ubiquitin-TAMRA, against wild-type Rpn11 (fluorescence polarisation, 30°C) [1]: 1.3 fold | deubiquitinase activity of the isolated Rpn11/Rpn8 heterodimer (0.5 μM) on 100 μM Ubiquitin-TAMRA, against wild-type Rpn11 (fluorescence polarisation, 30°C) [2]: 10 fold

mono-ubiquitinated GS substrate (titin I27^V15P with glycine-serine-rich initiation region, one ubiquitin K63R attached) (from UniProt P0CG63 1-76)
degradation rate of the mono-ubiquitinated GS substrate by the SspB-fused ARR-Pru-ΔUIM proteasome with Rpn11^L132R; no ubiquitin-mediated stimulation (bulk degradation assay) [3]: 0.25 min⁻¹ | degradation rate of the mono-ubiquitinated GS substrate by the SspB-fused ARR-Pru-ΔUIM proteasome with wild-type Rpn11, against the non-ubiquitinated GS substrate (bulk degradation assay) [4]: 0.38 min⁻¹

poly-ubiquitinated GS substrate (titin I27^V15P with glycine-serine-rich initiation region, long ubiquitin chains attached) (from UniProt P0CG63 1-76)
degradation rate of the GS substrate with long ubiquitin chains by SspB-fused ARR-Pru-ΔUIM proteasomes; 0.25 min^-1 for the non-ubiquitinated GS substrate (bulk degradation assay) [5]: 1 min⁻¹

unanchored K48-linked tetraubiquitin chain (from UniProt P0CG63 1-76)
SspB-delivered substrate degradation by ARR-Pru-ΔUIM-A89F proteasomes without and with K48-Ub4 (bulk degradation assay) [6]: 1.2 fold | average tail-insertion time constant of the wild-type proteasome without and with unanchored K48-Ub4 (single-molecule FRET substrate-processing assay) [7]: 1.39 s

B1: Rpn10 with the R23E, D31K and E68K mutations in its VWA domain, as subunit of the reconstituted 26S proteasome (receptor)
chain: MVLEATVLVIDNSEYSRNGDFPETRFEAQIKSVEFIFQAKRNSNPENTVGLISGAGANPRVLSTFTAKFGKILAGLHDTQIEGKLHMATALQIAQLTLKHRQNKVQHQRIVAFVCSPISDSRDELIRLAKTLKKNNVAVDIINFGEIEQNTELLDEFIAAVNNPQEETSHLLTVTPGPRLLYENIASSPIILEEGSSGMGAFGGSGGDSDANGTFMDFGVDPSMDPELAMALRLSMEEEQQRQERLRQQQQQQDQPEQSEQPEQHQDK
SspB-delivered substrate degradation by proteasomes with Rpn10^EKK against wild-type proteasomes (bulk degradation assay) [8]: 1.6 fold | s1-to-non-s1 transition rate of proteasomes with Rpn10^EKK against wild-type proteasomes (single-molecule FRET conformational dynamics assay) [8]: 40%
